Target: 人肿瘤坏死因子-α (hTNF-α) (human, UniProt P01375 77-233)
Assay: cell-based or functional assay

Sequence of 人肿瘤坏死因子-α (hTNF-α) (P01375 77-233 limits assumed): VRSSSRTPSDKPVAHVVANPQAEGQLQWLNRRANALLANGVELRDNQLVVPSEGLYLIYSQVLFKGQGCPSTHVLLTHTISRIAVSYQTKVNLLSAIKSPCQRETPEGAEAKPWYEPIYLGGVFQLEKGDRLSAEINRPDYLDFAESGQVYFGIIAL

B1: 全人源抗hTNF-α单链抗体F6 (scFv, V domains shown)
VH: QVQLLQSAAEVKKPGESLKISCKGSGYSFTSYWIGWVRQMPGKGLEWMGIIYPGDSDTRYSPSFQGQVTISADKSISTAYLQWSSLKASDTAVYYCARFCSPWGQGTLVTV
VL: LQSVLTQPPSVSEAPRQRVTISCSGSSSNIGNNAVNWYQQLPGKAPKLLIYYDDLLPSGVSDRFSGSKSGTSASLAISGLQSEDEADYYCAAWDDSLCVFGGGTKLTVLG
对TNF-α诱导的L929细胞毒性的抑制作用 (L929 cytotoxicity neutralisation, MTT) IC50: ~15 nM

— CN101407546A (UNIV CHINA PHARMA, dated 2009)
